From the RNAGym collection of RNA variant scans (doi:10.7554/elife.80360)

B1: HDV Ribozyme (parent)
chain: GGCCGGCAUGGUCCCAGCCUCCUCGCUGGCGCCGGCUGGGCAACAUUCCGAGGGGACCGUCCCCUCGGUAAUGGCGAAUGGGACCCA

Variants of: B1
Experiment: self-cleavage, relative activity (ratio to wild type); higher = more cleavage; co-transcriptional

For G11C C14A, which self-cleavage is on record?
Its self-cleavage is 0.106.

Which self-cleavage does the source give for G11A C19A here?
The self-cleavage was 0.0811.

For G11A U27G, which self-cleavage is on record?
The self-cleavage was 0.359.

Which self-cleavage does the source give for G11A C84G here?
Its self-cleavage is 0.851.

For G11A C84U, which self-cleavage is on record?
The self-cleavage was 0.991.

Which self-cleavage does the source give for G11A C84A here?
Its self-cleavage is 0.787.

Which self-cleavage does the source give for G11A C48U here?
Its self-cleavage is 0.326.

With G11A G59C as the variant, how does the self-cleavage read?
The self-cleavage was 0.381.

For G11A G59U, which self-cleavage is on record?
The self-cleavage was 0.408.

For G11C C64A, which self-cleavage is on record?
Its self-cleavage is 0.629.

With G11C C64U as the variant, how does the self-cleavage read?
Its self-cleavage is 0.269.

With G11A G52C as the variant, how does the self-cleavage read?
The self-cleavage was 0.521.

Which self-cleavage does the source give for G11A G52U here?
Its self-cleavage is 0.548.

Which self-cleavage does the source give for G11U A51G here?
Its self-cleavage is 0.415.

Which self-cleavage does the source give for G11C G76C here?
Its self-cleavage is 0.628.

For G11C G76A, which self-cleavage is on record?
The self-cleavage was 0.312.

Which self-cleavage does the source give for G11C G76U here?
The self-cleavage was 0.604.

Which self-cleavage does the source give for G11C G34U here?
Its self-cleavage is 0.0302.

With G11U C41G as the variant, how does the self-cleavage read?
Its self-cleavage is 0.204.

With G11C C66U as the variant, how does the self-cleavage read?
Its self-cleavage is 0.289.

With G11A U20A as the variant, how does the self-cleavage read?
The self-cleavage was 0.0623.

For G11A U20G, which self-cleavage is on record?
The self-cleavage was 0.0326.

For G11A U20C, which self-cleavage is on record?
Its self-cleavage is 0.

For G11A C86U, which self-cleavage is on record?
Its self-cleavage is 0.338.

With G11U A83C as the variant, how does the self-cleavage read?
The self-cleavage was 0.119.

For G11A G28A, which self-cleavage is on record?
Its self-cleavage is 0.0268.

Which self-cleavage does the source give for G11A G28C here?
The self-cleavage was 0.0936.

For G10U U69C, which self-cleavage is on record?
The self-cleavage was 0.656.

Which self-cleavage does the source give for G10U U69G here?
Its self-cleavage is 0.815.

With G11C C85A as the variant, how does the self-cleavage read?
Its self-cleavage is 1.18.

Which self-cleavage does the source give for G11C C85U here?
The self-cleavage was 0.266.

With G11C C15A as the variant, how does the self-cleavage read?
Its self-cleavage is 0.0396.

With G11C C15U as the variant, how does the self-cleavage read?
Its self-cleavage is 0.0554.

Which self-cleavage does the source give for G11C U46A here?
The self-cleavage was 0.115.

With G11C U46C as the variant, how does the self-cleavage read?
The self-cleavage was 0.123.

Which self-cleavage does the source give for G11A C36U here?
Its self-cleavage is 0.156.

For G11A G38C, which self-cleavage is on record?
Its self-cleavage is 0.0911.

For G11A G38A, which self-cleavage is on record?
The self-cleavage was 0.102.

Which self-cleavage does the source give for G11A C18A here?
The self-cleavage was 0.0841.

With G11A C18G as the variant, how does the self-cleavage read?
The self-cleavage was 0.041.

Which self-cleavage does the source give for G11A C18U here?
Its self-cleavage is 0.12.

Which self-cleavage does the source give for G11C U69A here?
The self-cleavage was 0.166.

With G11C G39A as the variant, how does the self-cleavage read?
Its self-cleavage is 0.264.

With G11C G39C as the variant, how does the self-cleavage read?
Its self-cleavage is 0.0489.

Which self-cleavage does the source give for G11U A77G here?
The self-cleavage was 0.283.

Which self-cleavage does the source give for G11U C32A here?
The self-cleavage was 0.0545.

With G11U G55C as the variant, how does the self-cleavage read?
The self-cleavage was 0.35.

For G11U G55A, which self-cleavage is on record?
The self-cleavage was 0.463.

Which self-cleavage does the source give for G11U G55U here?
The self-cleavage was 0.436.

Which self-cleavage does the source give for G11A A42U here?
Its self-cleavage is 0.158.

Which self-cleavage does the source give for G11A U79A here?
Its self-cleavage is 0.0652.

For G11A U79G, which self-cleavage is on record?
Its self-cleavage is 0.0923.

Which self-cleavage does the source give for G11A G17U here?
The self-cleavage was 0.251.

For G11A G17A, which self-cleavage is on record?
The self-cleavage was 0.544.

Which self-cleavage does the source give for G11A G17C here?
Its self-cleavage is 0.113.

With G11C C33U as the variant, how does the self-cleavage read?
The self-cleavage was 0.256.

For G11C C33A, which self-cleavage is on record?
The self-cleavage was 0.0346.

Which self-cleavage does the source give for G11C C33G here?
Its self-cleavage is 0.0396.

Which self-cleavage does the source give for G11A A71U here?
The self-cleavage was 0.229.

For G11A A71G, which self-cleavage is on record?
Its self-cleavage is 0.554.

For G11A A71C, which self-cleavage is on record?
The self-cleavage was 0.295.

With G11C C13U as the variant, how does the self-cleavage read?
Its self-cleavage is 0.0852.

With G11C C13G as the variant, how does the self-cleavage read?
The self-cleavage was 0.0437.

Which self-cleavage does the source give for G10U U20G here?
The self-cleavage was 0.113.

With G11A C21A as the variant, how does the self-cleavage read?
Its self-cleavage is 0.11.

For G11A C21G, which self-cleavage is on record?
The self-cleavage was 0.04.

With G11A C21U as the variant, how does the self-cleavage read?
Its self-cleavage is 0.175.

With G11U C49U as the variant, how does the self-cleavage read?
The self-cleavage was 0.386.

With G11U C49G as the variant, how does the self-cleavage read?
The self-cleavage was 0.166.

With G11U C13A as the variant, how does the self-cleavage read?
The self-cleavage was 0.197.

With G11U C13G as the variant, how does the self-cleavage read?
Its self-cleavage is 0.0831.

Which self-cleavage does the source give for G11U C36U here?
The self-cleavage was 0.138.

For G11U C36G, which self-cleavage is on record?
Its self-cleavage is 0.0615.

Which self-cleavage does the source give for G11U C64U here?
Its self-cleavage is 0.519.

For G11A G80A, which self-cleavage is on record?
Its self-cleavage is 0.197.

For G11A G80C, which self-cleavage is on record?
The self-cleavage was 0.158.

With G10U U46C as the variant, how does the self-cleavage read?
The self-cleavage was 0.352.

With G10U U46G as the variant, how does the self-cleavage read?
Its self-cleavage is 0.597.

Which self-cleavage does the source give for G11U A43G here?
The self-cleavage was 0.0339.

Which self-cleavage does the source give for G11U A43C here?
The self-cleavage was 0.0594.

For G11U G73U, which self-cleavage is on record?
Its self-cleavage is 0.111.

Which self-cleavage does the source give for G11A G67U here?
Its self-cleavage is 0.237.

With G11A C58A as the variant, how does the self-cleavage read?
The self-cleavage was 0.554.
